Results on one substance are retold here after patent US20060199194A1.

The target in test [1] is TAU-412 target protein (human) (UniProt P10636). Kind of test: sandwich Immuno Q-Amp assay: capture MN1010, TAU-412 10 ng per well, biotin MN1000 reporter, avidin-biotin-MNVplus template, Q-beta replicase, SYBR Green fluorescence; Startingblock blocking.
Test [2] shares this target. Kind of test: sandwich Immuno Q-Amp assay: capture MN1010, TAU-412 10 ng per well, biotin MN1000 reporter, avidin-biotin-MNVplus template, Q-beta replicase, SYBR Green fluorescence; Superblock blocking.

UniProt P10636, sequence (P10636 other isoform, or with tags, fused parts or gaps): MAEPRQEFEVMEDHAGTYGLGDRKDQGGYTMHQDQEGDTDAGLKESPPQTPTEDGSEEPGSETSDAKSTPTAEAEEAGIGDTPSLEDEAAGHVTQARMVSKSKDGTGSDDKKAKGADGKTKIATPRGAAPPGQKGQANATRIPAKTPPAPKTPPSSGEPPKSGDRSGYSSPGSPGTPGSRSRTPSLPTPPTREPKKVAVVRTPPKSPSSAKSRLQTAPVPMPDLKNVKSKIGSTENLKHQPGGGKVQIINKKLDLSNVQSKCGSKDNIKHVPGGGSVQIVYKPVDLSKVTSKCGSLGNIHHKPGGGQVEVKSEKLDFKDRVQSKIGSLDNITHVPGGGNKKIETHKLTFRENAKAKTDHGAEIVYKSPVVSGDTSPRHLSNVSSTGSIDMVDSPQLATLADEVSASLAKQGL

Consider “anti-TAU, biotinylated antibody MN-1000 (Pierce, #MN1000B)”, for which, in test [1], the RT (response time, starting block blocking) was determined as 13.5 min. Moreover, the RT (response time, Superblock blocking) in test [2] came to 15 min.
